Assay results as given in patent publication US20240325575A1 (WHITEHEAD INSTITUTE FOR BIOMEDICAL RESEARCH, published 2024).

B1: DC8 dimer (bivalent anti Class II MHC VHH, two DC8 joined via their C-termini by sortase and DBCO-azide click chemistry) (VHH)
VHH 1: QVQLQESGGGLVQPGGSLRLSCTASGFTFSTYYMSWVRKAPGKGPEWVSVMNSSGGDTRYADFVKGRFTISRDNAKNTLYLQMNSLKPEDTALYYCAQGRSDIYPTFTRGQGTQVTVSS
VHH 2: B1 VHH 1
modifications: C-terminal (Gly)3 continues as -PEG12-Cys(Alexa647, Texas Red or TCO/18F-tetrazine)-PEG5-Lys(azide); the azide is clicked to the DBCO of the other chain; C-terminal Cys carries maleimide-DBCO, clicked to the azide of the other chain
notes: Label differs by assay (Alexa647, Texas Red, 18F); also called 18F-DC8 dimer; anti Class II MHC dimer
B2: DC8-alexa647-PEG-5 kDa (site-specifically PEGylated DC8) (VHH)
VHH: B1 VHH 1
modifications: C-terminal (Gly)3 continues as -PEG12-Cys(Alexa647, Texas Red or TCO/18F-tetrazine)-PEG5-Lys(azide); the azide is clicked to DBCO-PEG 5 kDa
notes: Alexa647 form used for FACS, 18F form for PET and biodistribution; also called 5 kDa PEG-conjugated DC8; PEGylated DC8-Alexa647
B3: DC8-alexa647-PEG-10 kDa (site-specifically PEGylated DC8) (VHH)
VHH: B1 VHH 1
modifications: C-terminal (Gly)3 continues as -PEG12-Cys(Alexa647, Texas Red or TCO/18F-tetrazine)-PEG5-Lys(azide); the azide is clicked to DBCO-PEG 10 kDa
notes: Alexa647 form used for FACS, 18F form for PET and biodistribution; also called 10 kDa PEG-conjugated DC8; PEGylated DC8-Alexa647
B4: DC8-Alexa647-PEG-20 kDa (site-specifically PEGylated DC8) (VHH)
VHH: B1 VHH 1
modifications: C-terminal (Gly)3 continues as -PEG12-Cys(Alexa647, Texas Red or TCO/18F-tetrazine)-PEG5-Lys(azide); the azide is clicked to DBCO-PEG 20 kDa
notes: Alexa647 form used for FACS, 18F form for PET and biodistribution; also called 20 kDa PEG-conjugated DC8; PEGylated DC8-Alexa647
B5: DC13 dimer (bivalent anti CD11b VHH, two DC13 joined via their C-termini by sortase and DBCO-azide click chemistry) (VHH)
VHH 1: QVQLQESGGGLVQTGGSLRLSCAASGVDFNWYSMGWFRQAPGKEREYVASIDQGGELDYAISVKGRFTISRDNAKNMVYLQMNSLKPEDTAVYYCAADFSGRGASNPDKYKYWGQGTQVTVSS
VHH 2: B5 VHH 1
modifications: C-terminal (Gly)3 continues as -PEG12-Cys(Alexa647, Texas Red or TCO/18F-tetrazine)-PEG5-Lys(azide); the azide is clicked to the DBCO of the other chain; C-terminal Cys carries maleimide-DBCO, clicked to the azide of the other chain
notes: Label differs by assay (Alexa647, 18F); also called DC13-dimer-Alexa647; 18F-DC13 dimer

Assays:
[1] = target: T1, Class II MHC (mouse, on splenocytes and lymphoid organs) (mouse, UniProt P14434 24-256; P14483 28-265); test: FACS, splenocytes stained in vitro with different concentrations of Alexa647-labeled DC8 monomer or dimer; reference DC8 monomer
T1 construct: whole, on cells; also called Class II MHC products; Class II MHC molecules
T1 sequence (MHC II alpha, looked up): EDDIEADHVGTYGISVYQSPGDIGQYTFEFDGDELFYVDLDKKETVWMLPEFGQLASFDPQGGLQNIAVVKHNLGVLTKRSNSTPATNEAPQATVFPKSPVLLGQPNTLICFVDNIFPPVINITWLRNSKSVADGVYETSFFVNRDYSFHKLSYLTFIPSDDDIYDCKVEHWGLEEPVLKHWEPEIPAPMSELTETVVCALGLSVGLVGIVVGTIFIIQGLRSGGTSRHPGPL
T1 sequence (MHC II beta, looked up): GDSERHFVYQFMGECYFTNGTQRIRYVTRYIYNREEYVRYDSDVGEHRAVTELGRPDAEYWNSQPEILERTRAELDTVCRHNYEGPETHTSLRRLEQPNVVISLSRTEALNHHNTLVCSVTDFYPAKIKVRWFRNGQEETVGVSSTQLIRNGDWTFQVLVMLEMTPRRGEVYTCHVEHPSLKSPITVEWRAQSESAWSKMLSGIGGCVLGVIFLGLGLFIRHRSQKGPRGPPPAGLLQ
Experimental: (§1) FIGS. 3A-3D (FIGS. 3A-3B) show dimers that are able to stain their targets with increased efficiency compared to their corresponding monomers; for FIG. 3A: cells were stained in vitro with the indicated concentrations of Alexa647-labeled VHH monomers or dimers; for FIG. 3B: equal amount of DC8 monomer and DC8-dimer is injected IV. 2 h p.i., the mice are euthanized and spleens are excised for two-photon imaging. (FIG. 3C) Equal amount of DC8 with or without PEG, both equipped with Texas Red is injected IV. 3 h p.i., the mice are euthanized and spleens are excised for two-photon imaging. (FIG. 3D) Equal amount of DC8 with or without PEG (0.4 nmols), all equipped with Alexa647 is injected IV. 3 h p.i., the mice are euthanized and spleen is excised. Cells were harvested and analyzed with FACS.
(§2) Four sortase substrates were designed and synthesized for production of dimers or PEGylated VHHs (FIG. 1). The substrates either contain two bioorthogonal handles or a handle and a fluorophore. The Alexa647-labeled substrate was designed such that the reaction products could be used in FACS experiments to estimate relative in vitro binding affinities. […] For DC8 (anti Class II), splenocytes were stained with different concentrations of monomers and dimers and analyzed by FACS. […] The in vivo binding characteristics of the VHH dimers versus monomers were evaluated. […]

[2] = target: T1, Class II MHC (mouse, on splenocytes and …); test: FACS of spleen cells harvested 3 h after i.v. injection of Alexa647-labeled VHH into B6 mice; reference non-PEGylated DC8
Text: Specificity was established by blocking the targets of these VHHs by introduction of unlabeled VHHs as competitors prior to imaging. […] To further confirm the specificity of the dimers in the absence of competing VHHs, MHC II^{-/-} and CD11b^{-/-} mice were imaged. No PET signals were detected in lymphoid organs, further confirming the specificity of both dimers (FIGS. 4E-4G). […] These experiments helped set the stage to explore ability of VHH dimers to image tumors. Two types of tumors were imaged with the developed bivalent VHHs by engraftment of mice with the B16 melanoma or the pancreatic tumor cell line panc02. Both the dimers readily detected the lymphoid organs as well as the B16 melanoma tumor or the panc02 graft. Upon excision, the panc-tumors were no more than ˜1-2 mm in diameter, showing the method to be sensitive. Postmortem biodistribution analysis correlated well with the FACS and two-photon results as well (FIGS. 5A-5B). It was examined whether circulatory half-life could be manipulated to further improve the signal to noise ratio. PEGylation of VHHs results in increased circulatory half-life, where the increase correlates with the size of the attached PEG group^{[15]}. VHHs sortagged with substrate 2 or 3 were reacted with DBCO-functionalized PEG (5 kDa, 10 kDa or 20 kDa) to yield the final PEGylated VHHs (FIGS. 2E-2F). B6 mice received 5 μg of PEGylated VHH and were euthanized 3 h later, followed by dissection of lymph nodes and spleen for FACS and two-photon microscopy.

[3] = target: T2, CD11b (mouse, on the CD11b+ mutuDC dendritic cell line and on myeloid cells in vivo) (mouse, UniProt P05555 17-1153); test: FACS, CD11b+ mutuDC dendritic cell line stained in vitro with Alexa647-labeled DC13 monomer or dimer; reference DC13 monomer
T2 construct: whole, on cells; On cells CD11b is paired with CD18
Experimental: as §1, §2

T2 sequence (P05555 17-1153): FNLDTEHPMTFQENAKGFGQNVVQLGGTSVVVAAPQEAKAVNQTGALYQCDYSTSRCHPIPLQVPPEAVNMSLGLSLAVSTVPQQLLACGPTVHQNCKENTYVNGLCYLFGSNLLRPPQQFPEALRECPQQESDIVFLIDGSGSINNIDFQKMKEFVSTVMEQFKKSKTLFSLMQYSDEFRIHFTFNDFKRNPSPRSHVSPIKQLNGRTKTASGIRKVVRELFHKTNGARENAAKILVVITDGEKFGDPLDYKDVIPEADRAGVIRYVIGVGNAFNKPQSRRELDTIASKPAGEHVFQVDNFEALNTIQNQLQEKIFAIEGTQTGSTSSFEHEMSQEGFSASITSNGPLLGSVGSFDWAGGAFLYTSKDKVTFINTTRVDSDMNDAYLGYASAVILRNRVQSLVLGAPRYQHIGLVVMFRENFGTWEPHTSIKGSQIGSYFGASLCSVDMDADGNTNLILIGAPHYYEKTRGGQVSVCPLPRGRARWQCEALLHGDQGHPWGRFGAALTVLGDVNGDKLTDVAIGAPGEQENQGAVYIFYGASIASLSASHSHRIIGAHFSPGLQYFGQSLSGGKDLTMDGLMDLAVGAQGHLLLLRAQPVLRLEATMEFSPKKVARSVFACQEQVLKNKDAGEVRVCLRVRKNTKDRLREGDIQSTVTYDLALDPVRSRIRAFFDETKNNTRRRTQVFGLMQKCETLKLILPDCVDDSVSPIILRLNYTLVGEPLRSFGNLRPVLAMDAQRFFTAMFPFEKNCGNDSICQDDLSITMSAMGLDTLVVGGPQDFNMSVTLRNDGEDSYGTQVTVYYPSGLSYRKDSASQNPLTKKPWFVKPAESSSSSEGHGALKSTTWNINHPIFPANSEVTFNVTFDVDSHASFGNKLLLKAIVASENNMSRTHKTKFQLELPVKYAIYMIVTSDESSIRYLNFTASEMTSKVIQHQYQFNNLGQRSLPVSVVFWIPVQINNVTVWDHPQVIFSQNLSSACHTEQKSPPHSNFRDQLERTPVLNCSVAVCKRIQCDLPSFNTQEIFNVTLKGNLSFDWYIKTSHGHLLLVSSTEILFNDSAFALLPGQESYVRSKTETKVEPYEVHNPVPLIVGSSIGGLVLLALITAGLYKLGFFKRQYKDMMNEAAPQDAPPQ

Row | percent increase in staining versus non-PEGylated DC8 [2] | other results | Binder
1 |  | fold better binding than the corresponding monomer [1]: ~3.3 fold | B1
2 | ~30% |  | B2
3 | ~100% |  | B3
4 | ~220% |  | B4
5 |  | fold better binding than the corresponding monomer [3]: ~2.3 fold | B5
